From PMC3448684, “IP-FCM Measures Physiologic Protein-Protein Interactions Modulated by Signal Transduction and Small-Molecule Drug Inhibition” (PLoS ONE, 2012)

Columns and labels:
[1] = target: recombinant human CD25-Fc chimera (human) (UniProt P01589); test: IP-FCM (capture on antibody beads, detection by flow cytometry); data not shown: as a4 with recombinant CD25, but 500 U/ml or 10,000 U/ml IL-2
[2] = target: recombinant human CD25-Fc chimera (human) (UniProt P01589); test: IP-FCM (capture on antibody beads, detection by flow cytometry); CD25-Fc captured on anti-CD25 CML beads overnight, washed; IL-2 (1,000 U/ml) added for 1 h with or without Ro-26-4550 or control compounds; washed, probed with anti-IL-2
IL-2 = target: T1, IL-2 (Homo sapiens, UniProt P60568, C145S); test: IP-FCM bead assay of the IL-2:CD25 interaction with recombinant proteins (also with endogenous CD25 captured from PBMC lysate); assay type: biochemical
T1 construct: gene IL2; recombinant human IL-2 (Proleukin); with CD25 (IL-2 receptor α-chain; recombinant human CD25-Fc chimera, or endogenous CD25 from PBMC lysate)

Sequence of recombinant human IL-2 (Proleukin) (P60568 21-153): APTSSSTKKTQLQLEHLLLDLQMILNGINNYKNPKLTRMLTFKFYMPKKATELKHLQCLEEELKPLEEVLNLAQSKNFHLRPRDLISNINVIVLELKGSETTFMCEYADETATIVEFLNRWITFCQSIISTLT
Sequence of recombinant human CD25-Fc chimera (human) (P01589 22-240, stated change not applied): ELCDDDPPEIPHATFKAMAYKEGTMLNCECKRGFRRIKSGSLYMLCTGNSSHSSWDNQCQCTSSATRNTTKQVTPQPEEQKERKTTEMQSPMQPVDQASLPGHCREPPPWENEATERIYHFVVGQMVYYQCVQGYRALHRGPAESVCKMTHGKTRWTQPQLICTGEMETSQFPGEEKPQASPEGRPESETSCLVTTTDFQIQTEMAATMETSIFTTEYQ

percent reduction of binding with Ro-26-4550, 10,000 U/ml IL-2 [1]	percent reduction of binding with Ro-26-4550 (10 mM [sic]), 1,000 U/ml IL-2 [2]	Substance	% reduction of IL-2:CD25 binding at 10 μM (Methods; printed as 10 mM in Results) (IL-2)
44%	62%	recombinant human IL-2 (Proleukin) (from UniProt P60568 21-153) (ligand)	–
–	–	Ro-26-4550 [R26]	62 % reduction of IL-2:CD25 binding at 10 µM (Methods; printed as 10 mM in Results)
